The results in this text go back to the nanobody polyreactivity screen of Harvey et al. (2022).

The series can be described thus: yeast display, Sf9 membrane polyspecificity reagent, FACS + sequencing; frameworks hold sequencing errors. Put shortly:
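Genes from sorted yeast were amplified by colony PCR, read by MiSeq 2 × 250 sequencing and filtered on CDR length. These cells carried a synthetic nanobody library in Saccharomyces cerevisiae BJ5465 and were sorted by FACS into low and high (top ~1%) gates on anti-HA and streptavidin fluorescence. Polyreactivity is labelled according to the gate of origin.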
In the case of “QVQLVESGGGLVQAGGSLRLSCAASGITFYGYVMGWYRQAPGKERELVAAISVRGGSTYYADSVKGRFTISRDNAKNTVYLQMNSLKPEDTAVYYSAAWSYAYYYRLRYVSHDYWRQGTQVTVSS”, the “polyreactivity (PSR sort gate)” value was “high polyreactivity”. With “QVQLVESGGGLVQAGGSLRLSCAASGITFYHNAMGWYRPAPRKERELVATISRRGGRTYYADSVKGRFTISRDNAKNTVYLQMNSLKPEDTAVYYCAAAQKQSRYDYWGQGTQVTVSS” the entry was “high polyreactivity”; with “QVQLVESGGGLVQAGGSLRLSCAASGITFYHYAMGWYRQAPGKEREFVASITSSGGSTYYADSVKGRFTISRDNAKNTVYLQMNSLKPDDSAVYYCAARGYNPYGRKVGYLGQGTQVTVSS”, “high polyreactivity”; with “QVQLVESGGGLVQAGGSLRLSCAASGITFYHYAMGWYRQAPGKERELVAAISRSGGSTSYADSVMGRFTISRDNAKNTVYLQMNSLKPEDTAVYYCAARLVRESEPLGYWGQGTQVTVSS”, “high polyreactivity”. The result for “QVQLVESGGGLVQAGGSLRLSCAASGITFYHYAMGWYRQAPGKERELVATISSRGGTTYYADSVKGRFTISRDNAKNTVYLQMNSLKPEDTAVYYCADRTWIIYPVSKYDSWGQGTQVTVSS” reads “high polyreactivity”.

For the sequence “QVQLVESGGGLVQAGGSLRLSCAASGITFYINAMGWSRQAPRKERALLAGISSGGSTNYADSVKGRFTISRDNAKNTVYLQMNSLKPEDTAVYYCWVSRTYHLDYWGQGTQVTVSS”, the “polyreactivity (PSR sort gate)” value is “low polyreactivity”. Turning to “QVQLVESGGGLVQAGGSLRLSCAASGITFYINGMGWYRQAPGKEREFVAAIYDGVNTYYADSVKGRFTISRDNAKNTVYLQMNSLKPEDTAVYYCAADYPPARWEMEYWGQGTQVTVSS”, the “polyreactivity (PSR sort gate)” value was “low polyreactivity”. The result for “QVQLVESGGGLVQAGGSLRLSCAASGITFYKYAMGWYRQAPGKERELVAAITSTGGRTYYADSVKGRFTISGDNAKNSVYLQMNSLKPEDTAVYYCAKVFNQFIEHDYWGQGTQVTVSS” reads “low polyreactivity”; that for “QVQLVESGGGLVQAGGSLRLSCAASGITFYKYVMGWYRKAPGKERELVAAISSVGSTYYADSVKGRFTISRDNAKNTVYLQMNSLKPEDTAVYYCAAKYWKWYHYGFGYWGQGTQVTVSS”, “high polyreactivity”. Regarding “QVQLVESGGGLVQAGGSLRLSCAASGITFYKYVMGWYRQAPGKERELVAAISSVGSTYYADSVKGRFTISRDNAKNTVYLQMNSLKPEDTAVYYCAAKYWKWYHYGFGYWGQGTQVTVSS”, the “polyreactivity (PSR sort gate)” value was “high polyreactivity”.

On to “QVQLVESGGGLVQAGGSLRLSCAASGITFYRNAMGWYRQAPGKEMELVAAITWNGGRTYYADSVKGRFTISRDNAKNTVYLQMNSLKPEDTAVYYCAADSGTRNLASYRYYYWGQATQVTVSS”, for which the “polyreactivity (PSR sort gate)” value is “low polyreactivity”.

Consider “QVQLVESGGGLVQAGGSLRLSCAASGITFYRNAMGWYRQAPGKERELVAAIDVGDGTYYADSVKGRFTISRDNAKNSVYFQMNSLKPEDTAVYYCNKTFLFLEYDSWGQGTQVTVSS”, for which the “polyreactivity (PSR sort gate)” value is “low polyreactivity”. With “QVQLVESGGGLVQAGGSLRLSCAASGITFYRNAMGWYRQAPGKERELVAAIDVGDGTYYADSVKGRFTISRDNAKNTDYLQMNSLKPEDTAVYYCNKTFLFLEYDSWGQGTQVTVSS” the entry was “low polyreactivity”; with “QVQLVESGGGLVQAGGSLRLSCAASGITFYRNAMGWYRQAPGKERELVAAISRRGGITRYADSVKGRFTISRDNAKNTVYLQMNSLKPEDTAVYYCAKAIGSTALRRATEDYWGQGTQVTVSS”, “high polyreactivity”. “QVQLVESGGGLVQAGGSLRLSCAASGITFYRYAMGWYRQAPGKEREFVAAITWGSTYYADSVKGRFTISRDNAKNTVYLQMTSLKPEDTAVYYCNKKGYTVGATVGYWGQGTQVTVSS”: the “polyreactivity (PSR sort gate)” value is reported as “low polyreactivity”. Consider “QVQLVESGGGLVQAGGSLRLSCAASGITFYRYAMGWYRQAPGKERELVAAIRGGGASTYYADSVKGRFTISRDNAKNTVYLQMNSLKPEDTAVYYCAARAARSITNGYWGQGTQVTVSS”, for which the “polyreactivity (PSR sort gate)” value is given as “high polyreactivity”. Regarding “QVQLVESGGGLVQAGGSLRLSCAASGITFYRYAMGWYRQAPGKERELVAAISRSGGSTYYADSVKGRFTISRDNAKNTVYLQMNSLKPEDTAVDYCAAYILGNRDGYDYWGQGTQVTVSS”, the “polyreactivity (PSR sort gate)” value was “high polyreactivity”. With “QVQLVESGGGLVQAGGSLRLSCAASGITFYRYAMGWYRQAPGKERELVAAISWSGGRTYYADSVKGRFTISRDNAKNTVYLQMNSLKPEDTAVYYCNAYLYPYTRLDYWGQGTQVTVSS” the entry was “high polyreactivity”.

On to “QVQLVESGGGLVQAGGSLRLSCAASGITFYRYAMGWYRQAPGKERELVATITSGGSTYYADSVKGRFTISRDNAKNTVYLQMNSLKPEDTAVYYCAAESVWTWYYTTAGMDYWGQGTQVTVSS”, for which the “polyreactivity (PSR sort gate)” value is recorded as “high polyreactivity”.

For “QVQLVESGGGLVQAGGSLRLSCAASGITFYRYDMGWYRQAPGKERELVAAISTRGGSTYYADSVKGRFTISRDNAKNTVYLQMNSLKPEDTAVYYCAKERVGTSLPFKDYYWGQGTQVTVSS”, the “polyreactivity (PSR sort gate)” value is “low polyreactivity”.

“QVQLVESGGGLVQAGGSLRLSCAASGITFYSNAMGWYRPAPGKERELVAAISYRGGSTYYADSVKGRFTISRDNAKNTVYLQMNSLKPEDTAVYYCNKEVDWGWGRISYDSWGQGTQVTVSS”: the “polyreactivity (PSR sort gate)” value is reported as “low polyreactivity”.

Regarding “QVQLVESGGGLVQAGGSLRLSCAASGITFYSYAMGWYRQAPGKERELVAGISGGGGTSYADSVKGRFTISRDNAKNTVYLQMNSLKPEDTAVYYCNVYAYTYYYWAFYTEDYWGQGTQVTVSS”, the “polyreactivity (PSR sort gate)” value was “high polyreactivity”. The result for “QVQLVESGGGLVQAGGSLRLSCAASGITFYTYAMGWYRQAPGKERELVAAITNGGNTSYADSVKGRFTISRDNAKNTVYLQMNSLKPEDTAVYYCAAVVTLPIWGNWYYVRYGYWGQGTQVTVSS” reads “low polyreactivity”.

In the case of “QVQLVESGGGLVQAGGSLRLSCAASGITFYTYAMGWYRQAPRKERELVAAISGSGGSTYYADSVKGRFTISRDNAKNTVYLQMNSLKPEDTAVYYCAARWPRGPFGNRHDYWGQGTQVTVSS”, the “polyreactivity (PSR sort gate)” value was “high polyreactivity”. Regarding “QVQLVESGGGLVQAGGSLRLSCAASGITFYVHAMGWYRQAPGKERELVASITWSGGSTYYADSVKGRFTISRDNAKNTVYLQMNSLKPEDTAVYYCAHVLYRAYEYWGQGTQVTVSS”, the “polyreactivity (PSR sort gate)” value is “low polyreactivity”. For the sequence “QVQLVESGGGLVQAGGSLRLSCAASGITFYVYAMGWYRKAPGKERELVAAITSNGASTYYADSVKGRFTISRDNAKNTVYLQMNSLKPEDTAVYYCARRIKFPYHSYVGEYDYWGQGTQVTVSS”, the “polyreactivity (PSR sort gate)” value was “low polyreactivity”. With “QVQLVESGGGLVQAGGSLRLSCAASGITFYVYAMGWYRQAPGKEREFVAAISTRDGTTYADSLKGRFTISRDNAKNTVYLQMNSLKPEDTAVYYCAAAYYYDGQQGDFDYWGQGTQVTVSS” the entry was “low polyreactivity”.

Consider “QVQLVESGGGLVQAGGSLRLSCAASGITFYVYAMGWYRQAPGKERELVAAINYDSGSTYYADSVKGRFTISRDNAKNTVYLQMNSLKPEDTAVYYCATDGVNPFYAYDFWGQGTQVTVSS”, for which the “polyreactivity (PSR sort gate)” value is listed as “low polyreactivity”. Regarding “QVQLVESGGGLVQAGGSLRLSCAASGITFYVYAMGWYRQAPGKERELVAANSSGGGSTYYADSVKGRFTISRDNAKNTVYLQMNSLKPEDTAVYYCNKLFPGTYDGAHGYWGQGTQVTVSS”, the “polyreactivity (PSR sort gate)” value is “low polyreactivity”. “QVQLVESGGGLVQAGGSLRLSCAASGITFYYYAMGWYRQAPGKERELVAAIDTDGSTYYADSVKGRFTISRDNAKNTVYLQMNSLKPEDTAVYYCAAEIEYYPYSGYIYDYWGQGTQVTVSS”: the “polyreactivity (PSR sort gate)” value was “high polyreactivity”. With “QVQLVESGGGLVQAGGSLRLSCAASGITFYYYAMGWYRQAPGKERELVAAISRSGITYYADSVKGRFTISRDNAKNTVYLQMNSLKPEDTAVYYCAAGRRFDQSMYYWGQGTQVTVSS” the entry was “high polyreactivity”; with “QVQLVESGGGLVQAGGSLRLSCAASGITFYYYAMGWYRQAPGKERELVAAISVSGGSTYYADSVKGRFTISRDNAKNTVYLQMNSLKPEDTAVYYCAAADLLSYTYPEYDYWGQGTQVTVSS”, “low polyreactivity”; with “QVQLVESGGGLVQAGGSLRLSCAASGITFYYYAMGWYRQAPGKERELVAAISWSGGRTYYADSVKGRFTISRDNAKNTVYLQMNSLKPEDTAVYYCAAGYYLYHFVSLYGGDYWGQGTQVTVSS”, “high polyreactivity”. The result for “QVQLVESGGGLVQAGGSLRLSCAASGITFYYYAMGWYRQAPGKERELVADISSSGGSTYYADSVKGRFTISRDNAKNTVYLQMNSLKPEDTAVYYCNAVYRWYRPRVRFFRYDYWGQGTQVTVSS” reads “high polyreactivity”; that for “QVQLVESGGGLVQAGGSLRLSCAASGITIGRYAMGWYRQAPGKERELVAAISWSGGSTYYADSVKGRFTISRDNAKNTVYLQMNSLKPEDTAVYYCNKLRRYSEYNADDGDYWGQGTQVTVSS”, “high polyreactivity”; that for “QVQLVESGGGLVQAGGSLRLSCAASGITIKAYAMGWYRQAPGKERELVAAISGSGGSTYYADSVEGRFTISRDNAKNTVYLQMNSLKPEDTAVYYCAARAVSLTGYRFGYWGQGTQVTVSS”, “high polyreactivity”. Consider “QVQLVESGGGLVQAGGSLRLSCAASGITILNYVMGWYRQAPGKERELVAGINFSGDGTYYADSVKGRFTISRDNAKNTVFLLMNSLKPEDTAVYYCAADWLSVSRIYYSWGQGTQVTVSS”, for which the “polyreactivity (PSR sort gate)” value is “low polyreactivity”. As for “QVQLVESGGGLVQAGGSLRLSCAASGITILWNVMGWYRQAPGKERELVATITSIGGITNYADSVKGRFTISRDNAKNTVYLQMNSLKPEDTAVYYCARDDRDIRGVSGREGFLYDYWGQGTQVTVSS”, the “polyreactivity (PSR sort gate)” value is on record as “low polyreactivity”. The result for “QVQLVESGGGLVQAGGSLRLSCAASGITIRFYAMGWYRQAPGKERELVAAITRGGSTTYADSVKGRFTISRDNAKNTVYLQMNSLKPEDTAVYYCNAQYQSGYYTSYPDRFDYWGQGTQVTVSS” reads “low polyreactivity”; that for “QVQLVESGGGLVQAGGSLRLSCAASGITIRGYAMGWYRQAPGKERELVAAINTRTSTYYADSVKGRFTISRDNAKNTVYLQMNSLKPEDTAVYYCNRDPVYYDFDYWGQGTQVTVSS”, “low polyreactivity”; that for “QVQLVESGGGLVQAGGSLRLSCAASGITIRRYAMGWYRQAPGKERELVAAITTGGGGTYYADSVKGRFTISRDNAKNTVYLQMNSLKPEDTAVYYCAATYWRTYPSYYWGQGTQVTVSS”, “high polyreactivity”.
